Test results published in IntAct's records for PubMed 9756887.

B1: Focal adhesion kinase 1 (Homo sapiens), Q05397 (parent)
chain: MAAAYLDPNLNHTPNSSTKTHLGTGMERSPGAMERVLKVFHYFESNSEPTTWASIIRHGDATDVRGIIQKIVDSHKVKHVACYGFRLSHLRSEEVHWLHVDMGVSSVREKYELAHPPEEWKYELRIRYLPKGFLNQFTEDKPTLNFFYQQVKSDYMLEIADQVDQEIALKLGCLEIRRSYWEMRGNALEKKSNYEVLEKDVGLKRFFPKSLLDSVKAKTLRKLIQQTFRQFANLNREESILKFFEILSPVYRFDKECFKCALGSSWIISVELAIGPEEGISYLTDKGCNPTHLADFTQVQTIQYSNSEDKDRKGMLQLKIAGAPEPLTVTAPSLTIAENMADLIDGYCRLVNGTSQSFIIRPQKEGERALPSIPKLANSEKQGMRTHAVSVSETDDYAEIIDEEDTYTMPSTRDYEIQRERIELGRCIGEGQFGDVHQGIYMSPENPALAVAIKTCKNCTSDSVREKFLQEALTMRQFDHPHIVKLIGVITENPVWIIMELCTLGELRSFLQVRKYSLDLASLILYAYQLSTALAYLESKRFVHRDIAARNVLVSSNDCVKLGDFGLSRYMEDSTYYKASKGKLPIKWMAPESINFRRFTSASDVWMFGVCMWEILMHGVKPFQGVKNNDVIGRIENGERLPMPPNCPPTLYSLMTKCWAYDPSRRPRFTELKAQLSTILEEEKAQQEERMRMESRRQATVSWDSGGSDEAPPKPSRPGYPSPRSSEGFYPSPQHMVQTNHYQVSGYPGSHGITAMAGSIYPGQASLLDQTDSWNHRPQEIAMWQPNVEDSTVLDLRGIGQVLPTHLMEERLIRQQQEMEEDQRWLEKEERFLKPDVRLSRGSIDREDGSLQGPIGNQHIYQPVGKPDPAAPPKKPPRPGAPGHLGSLASLSSPADSYNEGVKLQPQEISPPPTANLDRSNDKVYENVTGLVKAVIEMSSKIQPAPPEEYVPMVKEVGLALRTLLATVDETIPLLPASTHREIEMAQKLLNSDLGELINKMKLAQQYVMTSLQQEYKKQMLTAAHALAVDAKNLLDVIDQARLKMLGQTRPH

Experiments:
[1] = variants of: B1; conditions: with paxi_human PXN
[2] = variants of: B1; conditions: with tgfi1_mouse Tgfb1i1, Q62219
tgfi1_mouse Tgfb1i1, Q62219, sequence (Q62219 whole entry): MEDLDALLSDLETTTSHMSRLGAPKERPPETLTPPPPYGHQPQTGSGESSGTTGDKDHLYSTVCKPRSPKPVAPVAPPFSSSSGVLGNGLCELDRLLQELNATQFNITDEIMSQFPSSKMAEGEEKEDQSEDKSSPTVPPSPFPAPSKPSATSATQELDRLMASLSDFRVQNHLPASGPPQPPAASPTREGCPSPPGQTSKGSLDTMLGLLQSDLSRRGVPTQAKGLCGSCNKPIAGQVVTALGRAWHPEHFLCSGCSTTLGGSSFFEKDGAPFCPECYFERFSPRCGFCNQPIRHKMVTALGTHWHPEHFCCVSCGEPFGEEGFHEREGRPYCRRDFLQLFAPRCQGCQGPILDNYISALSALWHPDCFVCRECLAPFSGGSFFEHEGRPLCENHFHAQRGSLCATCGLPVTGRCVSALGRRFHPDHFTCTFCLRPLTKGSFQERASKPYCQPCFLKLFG

effect of a mutation on the interaction [1]	effect of a mutation on the interaction [2]	Variant
disrupting interaction	disrupting interaction	V928G
disrupting interaction	disrupting interaction	L1034S
